# Reference: article PMC9482650, “Quantitative fragmentomics allow affinity mapping of interactomes” (Nature Communications, 2022)
# T1: NHERF3_3, Q5T2W1
# T1 sequence (Q5T2W1 238-333, limits assumed, looked up): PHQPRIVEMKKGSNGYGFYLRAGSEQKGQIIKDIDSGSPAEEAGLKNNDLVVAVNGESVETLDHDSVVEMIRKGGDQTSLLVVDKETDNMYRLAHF
# T2: MPP6, Q9NZW5
# T2 sequence (Q9NZW5 125-219, limits assumed, looked up): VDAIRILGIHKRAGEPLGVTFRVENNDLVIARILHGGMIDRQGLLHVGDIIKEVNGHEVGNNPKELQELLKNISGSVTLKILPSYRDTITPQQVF
# T3: APBA1_2, Q02410
# T3 sequence (Q02410 742-832, limits assumed, looked up): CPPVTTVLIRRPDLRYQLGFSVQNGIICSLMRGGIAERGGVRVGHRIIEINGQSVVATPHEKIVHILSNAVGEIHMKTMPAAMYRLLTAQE
# T4: SNTG2, Q9NY99
# T4 sequence (Q9NY99 68-166, limits assumed, looked up): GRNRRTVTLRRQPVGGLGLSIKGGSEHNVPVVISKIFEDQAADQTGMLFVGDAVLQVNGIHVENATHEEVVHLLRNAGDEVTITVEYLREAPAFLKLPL
# T5: CARD11, Q9BXL7
# T5 sequence (Q9BXL7 662-765, limits assumed, looked up): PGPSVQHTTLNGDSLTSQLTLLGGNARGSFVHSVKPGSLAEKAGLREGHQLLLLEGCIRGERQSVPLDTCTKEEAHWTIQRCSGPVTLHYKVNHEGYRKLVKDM
# T6: PARD3B_1, Q8TEW8
# T6 sequence (Q8TEW8 196-299, limits assumed, looked up): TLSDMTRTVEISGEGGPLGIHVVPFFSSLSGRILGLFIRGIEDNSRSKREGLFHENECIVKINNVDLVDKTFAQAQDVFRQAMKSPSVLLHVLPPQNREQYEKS
# T7: LRRC7, Q96NW7
# T7 sequence (Q96NW7 1440-1537, limits assumed, looked up): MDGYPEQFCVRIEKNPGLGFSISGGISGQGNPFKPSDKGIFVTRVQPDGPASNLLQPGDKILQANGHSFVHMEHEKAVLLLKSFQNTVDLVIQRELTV
# T8: NHERF3_1, Q5T2W1
# T8 sequence (Q5T2W1 4-100, limits assumed, looked up): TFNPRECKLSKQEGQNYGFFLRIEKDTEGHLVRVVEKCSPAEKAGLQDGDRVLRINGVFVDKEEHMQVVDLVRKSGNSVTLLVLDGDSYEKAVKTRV
# T9: SNTG1, Q9NSN8
# T9 sequence (Q9NSN8 52-150, limits assumed, looked up): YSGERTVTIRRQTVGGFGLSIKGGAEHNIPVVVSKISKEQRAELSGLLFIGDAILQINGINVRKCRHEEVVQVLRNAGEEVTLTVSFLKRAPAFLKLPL
# Target: TJP1_3, Q07157
# Sequence (Q07157 416-512): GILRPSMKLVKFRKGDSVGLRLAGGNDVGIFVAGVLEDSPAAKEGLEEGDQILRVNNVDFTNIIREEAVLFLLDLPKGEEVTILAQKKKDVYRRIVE
# Assay: holdup assay
# Set-up: key: below the threshold = too weak to quantify, mostly under pKd 3.1 to 4
# Conditions: plain residues with an end cap or a label only (N-terminal biotin on a linker: ado-ado)
row,pKd,Binder
1,below the threshold,"YAEKRMLTEV [KCNA6, P17658]"
2,below the threshold,"WAKEKQHTRL [SLC17A1, Q14916]"

# Target: T1, NHERF3_3, Q5T2W1
# Assay: holdup assay
# Set-up: key: below the threshold = too weak to quantify, mostly under pKd 3.1 to 4
# Conditions: plain residues with an end cap or a label only (N-terminal biotin on a linker: ado-ado)
row,pKd,Binder
1,below the threshold,"YAEKRMLTEV [KCNA6, P17658]"
2,4.28,"WAKEKQHTRL [SLC17A1, Q14916]"

# Target: PICK1, Q9NRD5
# Sequence (Q9NRD5 17-115): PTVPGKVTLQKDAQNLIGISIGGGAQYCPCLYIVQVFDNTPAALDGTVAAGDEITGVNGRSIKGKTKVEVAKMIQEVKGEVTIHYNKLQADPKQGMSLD
# Assay: holdup assay
# Set-up: key: below the threshold = too weak to quantify, mostly under pKd 3.1 to 4
# Conditions: plain residues with an end cap or a label only (N-terminal biotin on a linker: ado-ado)
row,pKd,Binder
1,below the threshold,"YAEKRMLTEV [KCNA6, P17658]"
2,below the threshold,"WAKEKQHTRL [SLC17A1, Q14916]"

# Target: T2, MPP6, Q9NZW5
# Assay: holdup assay
# Set-up: key: below the threshold = too weak to quantify, mostly under pKd 3.1 to 4
# Conditions: plain residues with an end cap or a label only (N-terminal biotin on a linker: ado-ado)
row,pKd,Binder
1,3.54,"YAEKRMLTEV [KCNA6, P17658]"
2,below the threshold,"WAKEKQHTRL [SLC17A1, Q14916]"

# Target: T3, APBA1_2, Q02410
# Assay: holdup assay
# Set-up: key: below the threshold = too weak to quantify, mostly under pKd 3.1 to 4
# Conditions: plain residues with an end cap or a label only (N-terminal biotin on a linker: ado-ado)
row,pKd,Binder
1,3.72,"YAEKRMLTEV [KCNA6, P17658]"
2,below the threshold,"WAKEKQHTRL [SLC17A1, Q14916]"

# Target: IL16_1, Q14005
# Sequence (Q14005 210-306): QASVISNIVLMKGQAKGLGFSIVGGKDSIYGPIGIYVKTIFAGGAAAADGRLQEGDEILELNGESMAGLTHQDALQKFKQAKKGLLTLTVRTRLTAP
# Assay: holdup assay
# Set-up: key: below the threshold = too weak to quantify, mostly under pKd 3.1 to 4
# Conditions: plain residues with an end cap or a label only (N-terminal biotin on a linker: ado-ado)
row,pKd,Binder
1,below the threshold,"YAEKRMLTEV [KCNA6, P17658]"
2,below the threshold,"WAKEKQHTRL [SLC17A1, Q14916]"

# Target: LDB3, O75112
# Sequence (O75112 1-94): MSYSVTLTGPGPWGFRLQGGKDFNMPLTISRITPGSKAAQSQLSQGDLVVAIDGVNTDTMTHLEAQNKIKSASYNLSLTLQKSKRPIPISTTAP
# Assay: holdup assay
# Set-up: key: below the threshold = too weak to quantify, mostly under pKd 3.1 to 4
# Conditions: plain residues with an end cap or a label only (N-terminal biotin on a linker: ado-ado)
row,pKd,Binder
1,below the threshold,"YAEKRMLTEV [KCNA6, P17658]"
2,below the threshold,"WAKEKQHTRL [SLC17A1, Q14916]"

# Target: GRIP2_6, Q9C0E4
# Sequence (Q9C0E4 648-740): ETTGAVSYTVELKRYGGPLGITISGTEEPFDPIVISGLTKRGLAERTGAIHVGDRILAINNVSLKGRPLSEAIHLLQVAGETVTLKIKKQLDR
# Assay: holdup assay
# Set-up: key: below the threshold = too weak to quantify, mostly under pKd 3.1 to 4
# Conditions: plain residues with an end cap or a label only (N-terminal biotin on a linker: ado-ado)
row,pKd,Binder
1,below the threshold,"YAEKRMLTEV [KCNA6, P17658]"
2,below the threshold,"WAKEKQHTRL [SLC17A1, Q14916]"

# Target: LNX1_1, Q8TBB1
# Sequence (Q8TBB1 261-371): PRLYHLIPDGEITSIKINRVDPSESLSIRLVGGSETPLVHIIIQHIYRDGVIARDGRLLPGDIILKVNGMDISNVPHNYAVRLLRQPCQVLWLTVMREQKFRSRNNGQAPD
# Assay: holdup assay
# Set-up: key: below the threshold = too weak to quantify, mostly under pKd 3.1 to 4
# Conditions: plain residues with an end cap or a label only (N-terminal biotin on a linker: ado-ado)
row,pKd,Binder
1,below the threshold,"YAEKRMLTEV [KCNA6, P17658]"
2,3.47,"WAKEKQHTRL [SLC17A1, Q14916]"

# Target: T4, SNTG2, Q9NY99
# Assay: holdup assay
# Set-up: key: below the threshold = too weak to quantify, mostly under pKd 3.1 to 4
# Conditions: plain residues with an end cap or a label only (N-terminal biotin on a linker: ado-ado)
row,pKd,Binder
1,below the threshold,"YAEKRMLTEV [KCNA6, P17658]"
2,4.15,"WAKEKQHTRL [SLC17A1, Q14916]"

# Target: T5, CARD11, Q9BXL7
# Assay: holdup assay
# Set-up: key: below the threshold = too weak to quantify, mostly under pKd 3.1 to 4
# Conditions: plain residues with an end cap or a label only (N-terminal biotin on a linker: ado-ado)
row,pKd,Binder
1,below the threshold,"YAEKRMLTEV [KCNA6, P17658]"
2,below the threshold,"WAKEKQHTRL [SLC17A1, Q14916]"

# Target: DLG5_1, Q8TDM6
# Sequence (Q8TDM6 617-713): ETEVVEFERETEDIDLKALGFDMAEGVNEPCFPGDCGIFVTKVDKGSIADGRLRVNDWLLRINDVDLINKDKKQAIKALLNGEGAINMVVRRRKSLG
# Assay: holdup assay
# Set-up: key: below the threshold = too weak to quantify, mostly under pKd 3.1 to 4
# Conditions: plain residues with an end cap or a label only (N-terminal biotin on a linker: ado-ado)
row,pKd,Binder
1,below the threshold,"YAEKRMLTEV [KCNA6, P17658]"
2,below the threshold,"WAKEKQHTRL [SLC17A1, Q14916]"

# Target: T6, PARD3B_1, Q8TEW8
# Assay: holdup assay
# Set-up: key: below the threshold = too weak to quantify, mostly under pKd 3.1 to 4
# Conditions: plain residues with an end cap or a label only (N-terminal biotin on a linker: ado-ado)
row,pKd,Binder
1,below the threshold,"YAEKRMLTEV [KCNA6, P17658]"
2,4.31,"WAKEKQHTRL [SLC17A1, Q14916]"

# Target: AHNAK1, Q09666
# Sequence (Q09666 4-100): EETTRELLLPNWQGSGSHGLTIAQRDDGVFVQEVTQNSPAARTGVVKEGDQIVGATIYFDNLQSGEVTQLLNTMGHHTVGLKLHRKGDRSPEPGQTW
# Assay: holdup assay
# Set-up: key: below the threshold = too weak to quantify, mostly under pKd 3.1 to 4
# Conditions: plain residues with an end cap or a label only (N-terminal biotin on a linker: ado-ado)
row,pKd,Binder
1,below the threshold,"YAEKRMLTEV [KCNA6, P17658]"
2,below the threshold,"WAKEKQHTRL [SLC17A1, Q14916]"

# Target: PTPN3, P26045
# Sequence (P26045 505-587): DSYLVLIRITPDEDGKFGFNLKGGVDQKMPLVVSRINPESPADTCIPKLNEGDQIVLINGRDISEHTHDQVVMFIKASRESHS
# Assay: holdup assay
# Set-up: key: below the threshold = too weak to quantify, mostly under pKd 3.1 to 4
# Conditions: plain residues with an end cap or a label only (N-terminal biotin on a linker: ado-ado)
row,pKd,Binder
1,4.32,"YAEKRMLTEV [KCNA6, P17658]"
2,3.85,"WAKEKQHTRL [SLC17A1, Q14916]"

# Target: DLG1_3, Q12959
# Sequence (Q12959 457-571): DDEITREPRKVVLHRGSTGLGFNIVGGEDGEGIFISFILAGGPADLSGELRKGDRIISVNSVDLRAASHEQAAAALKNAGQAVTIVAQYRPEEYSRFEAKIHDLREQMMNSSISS
# Assay: holdup assay
# Set-up: key: below the threshold = too weak to quantify, mostly under pKd 3.1 to 4
# Conditions: plain residues with an end cap or a label only (N-terminal biotin on a linker: ado-ado)
row,pKd,Binder
1,below the threshold,"YAEKRMLTEV [KCNA6, P17658]"
2,below the threshold,"WAKEKQHTRL [SLC17A1, Q14916]"

# Target: MAGI2_3, Q86UL8
# Sequence (Q86UL8 600-682): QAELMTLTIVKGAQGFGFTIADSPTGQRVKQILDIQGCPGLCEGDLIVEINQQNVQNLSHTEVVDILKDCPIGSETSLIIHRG
# Assay: holdup assay
# Set-up: key: below the threshold = too weak to quantify, mostly under pKd 3.1 to 4
# Conditions: plain residues with an end cap or a label only (N-terminal biotin on a linker: ado-ado)
row,pKd,Binder
1,below the threshold,"YAEKRMLTEV [KCNA6, P17658]"
2,below the threshold,"WAKEKQHTRL [SLC17A1, Q14916]"

# Target: SCRIB_1, Q14160
# Sequence (Q14160 718-814): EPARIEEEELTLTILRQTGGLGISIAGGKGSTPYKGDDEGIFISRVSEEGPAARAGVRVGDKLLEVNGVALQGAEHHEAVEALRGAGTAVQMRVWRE
# Assay: holdup assay
# Set-up: key: below the threshold = too weak to quantify, mostly under pKd 3.1 to 4
# Conditions: plain residues with an end cap or a label only (N-terminal biotin on a linker: ado-ado)
row,pKd,Binder
1,3.63,"YAEKRMLTEV [KCNA6, P17658]"
2,4.21,"WAKEKQHTRL [SLC17A1, Q14916]"

# Target: SCRIB_3, Q14160
# Sequence (Q14160 999-1103): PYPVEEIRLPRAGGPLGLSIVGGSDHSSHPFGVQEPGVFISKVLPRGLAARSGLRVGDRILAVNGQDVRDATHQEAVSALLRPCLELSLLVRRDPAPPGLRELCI
# Assay: holdup assay
# Set-up: key: below the threshold = too weak to quantify, mostly under pKd 3.1 to 4
# Conditions: plain residues with an end cap or a label only (N-terminal biotin on a linker: ado-ado)
row,pKd,Binder
1,3.52,"YAEKRMLTEV [KCNA6, P17658]"
2,4.11,"WAKEKQHTRL [SLC17A1, Q14916]"

# Target: T7, LRRC7, Q96NW7
# Assay: holdup assay
# Set-up: key: below the threshold = too weak to quantify, mostly under pKd 3.1 to 4
# Conditions: plain residues with an end cap or a label only (N-terminal biotin on a linker: ado-ado)
row,pKd,Binder
1,below the threshold,"YAEKRMLTEV [KCNA6, P17658]"
2,below the threshold,"WAKEKQHTRL [SLC17A1, Q14916]"

# Target: T8, NHERF3_1, Q5T2W1
# Assay: holdup assay
# Set-up: key: below the threshold = too weak to quantify, mostly under pKd 3.1 to 4
# Conditions: plain residues with an end cap or a label only (N-terminal biotin on a linker: ado-ado)
row,pKd,Binder
1,below the threshold,"YAEKRMLTEV [KCNA6, P17658]"
2,4.73,"WAKEKQHTRL [SLC17A1, Q14916]"

# Target: NHERF4_4, Q86UT5
# Sequence (Q86UT5 464-550): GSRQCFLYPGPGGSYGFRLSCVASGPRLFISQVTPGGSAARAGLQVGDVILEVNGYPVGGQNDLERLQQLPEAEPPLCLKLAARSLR
# Assay: holdup assay
# Set-up: key: below the threshold = too weak to quantify, mostly under pKd 3.1 to 4
# Conditions: plain residues with an end cap or a label only (N-terminal biotin on a linker: ado-ado)
row,pKd,Binder
1,below the threshold,"YAEKRMLTEV [KCNA6, P17658]"
2,below the threshold,"WAKEKQHTRL [SLC17A1, Q14916]"

# Target: GRASP, Q7Z6J2
# Sequence (Q7Z6J2 96-193): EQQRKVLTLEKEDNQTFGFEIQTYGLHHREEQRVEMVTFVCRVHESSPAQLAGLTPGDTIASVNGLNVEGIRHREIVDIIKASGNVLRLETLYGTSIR
# Assay: holdup assay
# Set-up: key: below the threshold = too weak to quantify, mostly under pKd 3.1 to 4
# Conditions: plain residues with an end cap or a label only (N-terminal biotin on a linker: ado-ado)
row,pKd,Binder
1,4.32,"YAEKRMLTEV [KCNA6, P17658]"
2,4.71,"WAKEKQHTRL [SLC17A1, Q14916]"

# Target: LIMK2, P53671
# Sequence (P53671 143-248): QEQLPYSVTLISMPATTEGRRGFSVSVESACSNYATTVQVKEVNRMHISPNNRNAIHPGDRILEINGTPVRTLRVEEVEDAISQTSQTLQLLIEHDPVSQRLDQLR
# Assay: holdup assay
# Set-up: key: below the threshold = too weak to quantify, mostly under pKd 3.1 to 4
# Conditions: plain residues with an end cap or a label only (N-terminal biotin on a linker: ado-ado)
row,pKd,Binder
1,below the threshold,"YAEKRMLTEV [KCNA6, P17658]"
2,below the threshold,"WAKEKQHTRL [SLC17A1, Q14916]"

# Target: Inadl_3, Q8NI35
# Sequence (Q8NI35 359-469): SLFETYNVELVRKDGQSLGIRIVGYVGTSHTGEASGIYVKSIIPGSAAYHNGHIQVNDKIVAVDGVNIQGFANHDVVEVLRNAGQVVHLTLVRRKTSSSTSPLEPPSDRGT
# Assay: holdup assay
# Set-up: key: below the threshold = too weak to quantify, mostly under pKd 3.1 to 4
# Conditions: plain residues with an end cap or a label only (N-terminal biotin on a linker: ado-ado)
row,pKd,Binder
1,below the threshold,"YAEKRMLTEV [KCNA6, P17658]"
2,below the threshold,"WAKEKQHTRL [SLC17A1, Q14916]"

# Target: IL16_4, Q14005
# Sequence (Q14005 1229-1329): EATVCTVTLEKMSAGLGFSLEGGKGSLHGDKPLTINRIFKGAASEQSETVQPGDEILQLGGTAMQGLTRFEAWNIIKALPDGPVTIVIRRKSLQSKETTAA
# Assay: holdup assay
# Set-up: key: below the threshold = too weak to quantify, mostly under pKd 3.1 to 4
# Conditions: plain residues with an end cap or a label only (N-terminal biotin on a linker: ado-ado)
row,pKd,Binder
1,below the threshold,"YAEKRMLTEV [KCNA6, P17658]"
2,below the threshold,"WAKEKQHTRL [SLC17A1, Q14916]"

# Target: DLG2_2, Q15700
# Sequence (Q15700 189-283): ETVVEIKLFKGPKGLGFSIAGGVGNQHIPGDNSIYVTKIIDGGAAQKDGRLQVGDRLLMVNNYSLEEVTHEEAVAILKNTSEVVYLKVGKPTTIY
# Assay: holdup assay
# Set-up: key: below the threshold = too weak to quantify, mostly under pKd 3.1 to 4
# Conditions: plain residues with an end cap or a label only (N-terminal biotin on a linker: ado-ado)
row,pKd,Binder
1,4.15,"YAEKRMLTEV [KCNA6, P17658]"
2,3.82,"WAKEKQHTRL [SLC17A1, Q14916]"

# Target: T9, SNTG1, Q9NSN8
# Assay: holdup assay
# Set-up: key: below the threshold = too weak to quantify, mostly under pKd 3.1 to 4
# Conditions: plain residues with an end cap or a label only (N-terminal biotin on a linker: ado-ado)
row,pKd,Binder
1,3.57,"YAEKRMLTEV [KCNA6, P17658]"
2,below the threshold,"WAKEKQHTRL [SLC17A1, Q14916]"
